Source: US20190127480A1 (Regeneron, published 2019)
Like-named read-outs stand apart in the source and are kept apart here.

How the values were obtained:
[1] = target: T1, human CD3 expressed on cells (Jurkat cells; human T-cells of PBMC) (human, UniProt P09693 23-182; P20963 22-164); experiment: FACS titration on Jurkat cells, monovalent 1-arm antibody
T1 construct: whole, on cells; Native CD3 on the cell surface; also called hPBMC
Protocol: (§1) FACS data was acquired using the following protocol: Cells at 2×10⁵ per well were incubated with serially diluted antibodies for 30 min on ice. Post incubation, cells were washed and secondary antibody was added and incubated for an additional 30 minutes. After incubation, cells were washed, re-suspended in cold PBS containing 1% BSA and analyzed by flow cytometry with viable Jurkat cells gated by side and forward scatters. The EC₅₀s for cell binding titration were determined using Prism software with values calculated using a 4-parameter non-linear regression analysis.

[2] = target: cynomolgus monkey CD3 expressed on monkey T-cells (PBMCs) (cynomolgus monkey, UniProt Q95LI5 22-198; Q95LI8 22-171); experiment: cell-based or functional assay
cynomolgus monkey CD3 expressed on monkey T-cells (PBMCs), sequence (Q95LI5 22-198, chain 1 of 2): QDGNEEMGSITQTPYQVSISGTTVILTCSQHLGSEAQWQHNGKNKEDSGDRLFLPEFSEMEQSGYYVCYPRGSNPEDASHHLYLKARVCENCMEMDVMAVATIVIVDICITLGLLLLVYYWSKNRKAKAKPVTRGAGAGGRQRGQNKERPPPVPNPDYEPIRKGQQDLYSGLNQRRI
cynomolgus monkey CD3 expressed on monkey T-cells (PBMCs), sequence (Q95LI8 22-171, chain 2 of 2): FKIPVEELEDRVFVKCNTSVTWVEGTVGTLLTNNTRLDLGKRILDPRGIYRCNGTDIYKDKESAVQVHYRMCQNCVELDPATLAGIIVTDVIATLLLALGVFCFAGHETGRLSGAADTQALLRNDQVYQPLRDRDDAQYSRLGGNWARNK

[3] = target: T1, human CD3 expressed on cells (Jurkat …); experiment: cell-based or functional assay
[4] = target: T1, human CD3 expressed on cells (Jurkat …); experiment: cell-based or functional assay; remark: listed apart in the source
[5] = target: T1, human CD3 expressed on cells (Jurkat …); experiment: cell-based or functional assay; remark: listed apart in the source
[6] = target: T1, human CD3 expressed on cells (Jurkat …); experiment: FACS titration on Jurkat cells (CD3+ human T-cell line)
Protocol: as §1

[7] = target: T1, human CD3 expressed on cells (Jurkat …); experiment: cell-based or functional assay; remark: listed apart in the source

T1 sequence (chain, as listed by the source, chain 1 of 4): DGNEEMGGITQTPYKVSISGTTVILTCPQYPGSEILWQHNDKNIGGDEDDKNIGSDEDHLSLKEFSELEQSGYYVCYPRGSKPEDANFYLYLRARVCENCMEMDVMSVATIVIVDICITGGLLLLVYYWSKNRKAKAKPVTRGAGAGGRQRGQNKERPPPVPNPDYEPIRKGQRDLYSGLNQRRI
T1 sequence (chain, as listed by the source, chain 2 of 4): as the sequence (Q95LI8 22-171, chain 2 of 2) above, with V5I, K15N, V20I, T32S, N33D, N34I, A64T, N74S, L83V, R141H counted along it
T1 sequence (P09693 23-182, chain 3 of 4): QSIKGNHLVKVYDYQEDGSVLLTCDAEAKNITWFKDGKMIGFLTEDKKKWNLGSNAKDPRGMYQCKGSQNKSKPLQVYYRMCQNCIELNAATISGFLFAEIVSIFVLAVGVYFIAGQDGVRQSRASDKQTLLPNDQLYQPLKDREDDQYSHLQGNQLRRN
T1 sequence (P20963 22-164, chain 4 of 4): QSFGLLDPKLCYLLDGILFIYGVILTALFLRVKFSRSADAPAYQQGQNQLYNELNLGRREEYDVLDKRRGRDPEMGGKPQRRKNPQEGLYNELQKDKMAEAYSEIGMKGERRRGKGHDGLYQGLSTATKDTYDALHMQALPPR

Binder	EC50 [1]	EC50 [M] mfPBMC Proliferation [2]	U937 Cytotoxicity Human T-cells [3]	EC50 [M] hPBMC Proliferation [4]	U937 Cytotoxicity Human T-cells [5]	EC50 [6]	EC50 [M] hPBMC Proliferation [7]
H1H7223P (antibody, human IgG1, V domains shown, Monovalent 1-arm format: second Fab removed, only the Fc portion (CH2-CH3) expressed; human IgG1 Fc; tied by the numerical identifier; also called H1H7223B) VH: QVQLVESGGGLVQPGRSLRLSCAASGFTFADYTMHWVRQAPGKGLEWVSDISWNSGSMGYADSVKGRFTISRDNAKKSLYLQMNSLRTEDTALYYCAKDGSGYGKYFFYAMDVWGQGTTVTVSS VL: not shown	937 pM	6.75e-11 M	5.3 pM	1.07e-12 M	–	–	–
H1H7232P (antibody, human IgG1, V domains shown, Monovalent 1-arm format: second Fab removed, only the Fc portion (CH2-CH3) expressed; human IgG1 Fc; tied by the numerical identifier; also called H1H7232B) VH: EVQLVESGGGLVHPGRSLRLSCAASGFTFDDYTMHWVRQAPGKGLEWVSDISWNSGSRGYADSVKGRFTISRDNAENSLYLQMNSLRAEDTALYYCAKDKSGYGHYYYYAMDVWGQGTTVTVSS VL: not shown	1500 pM	4.9e-11 M	9.96 pM	1.03e-12 M	–	–	–
H1H7211P (antibody, human IgG1, V domains shown, Monovalent 1-arm format: second Fab removed, only the Fc portion (CH2-CH3) expressed; human IgG1 Fc; tied by the numerical identifier; also called H1H7211B) VH: EVQLVESGGGLVHPGRSLRLSCTASGFKFADYTMHWVRQAPGKGLEWVSDISWNSGSKGYADSVKGRFTISRDNDKNSLYLQMNSLRGEDTALYYCAKDGSGYGRFHFYAIDVWGQGTTVTVSS VL: not shown	701 pM	2.81e-13 M	7.89 pM	2.75e-12 M	–	–	–
H1H7226P (antibody, human IgG1, V domains shown, Monovalent 1-arm format: second Fab removed, only the Fc portion (CH2-CH3) expressed; human IgG1 Fc; tied by the numerical identifier; also called H1H7226B) VH: EVQLVQSGGGLVQPGRSLRLSCAASGFTFSDYTMHWVRQGPGKGLEWVSDISWNSGSKGYTDSVKGRFTISRDNAKKSLYLQMNSLRAEDTALYYCVKDGSGYGKYHFYAMDVWGQGTLVTVSS VL: not shown	795 pM	2.26e-11 M	10.4 pM	9.52e-13 M	–	–	–
H1H7203P (antibody, human IgG1, V domains shown, Monovalent 1-arm format: second Fab removed, only the Fc portion (CH2-CH3) expressed; human IgG1 Fc; tied by the numerical identifier; also called H1H7203B) VH: EVQLVQSGGGLVQPGRSLRLSCAASGFTFADYTMHWVRQTPGKGLEWVSGISWNSGSKDYADSVKGRFTISRDNAKNSLYLQMNSLRTEDTALYYCAKYGSGYGRYFFYAMDVWGQGTTVTVSS VL: not shown	3240 pM	4.97e-13 M	5.47 pM	1.64e-12 M	–	–	–
H1H7198P (antibody, human IgG1, V domains shown, Monovalent 1-arm format: second Fab removed, only the Fc portion (CH2-CH3) expressed; human IgG1 Fc; tied by the numerical identifier; also called H1H7198B) VH: EVQLVESGGGLVQPGRSLRLSCAASGFTFADYTMHWVRQVPGKGLEWVSDISWNSGSKDYADSVKGRFTISRDNAKNFLYLQMNSLRAEDTALYYCVKYGSGYGKFYFYAMDVWGQGTTVTVSS VL: not shown	726 pM	2.29e-12 M	5.21 pM	2.55e-12 M	–	–	–
H1H7233P (antibody, human IgG1, V domains shown, Monovalent 1-arm format: second Fab removed, only the Fc portion (CH2-CH3) expressed; human IgG1 Fc; tied by the numerical identifier; also called H1H7233B) VH: EVQLVESGGGLVQPGGSLRLSCEASGFTFADYTLHWVRQAPGKGLEWVSDISWNSGTRGYADSVRGRFTISRDNAKKSLYLQMNSLRSEDTALYYCVKDGSGYGRYNFYAMDVWGQGTTVTVSS VL: not shown	715 pM	4.35e-12 M	11.9 pM	7.34e-13 M	–	–	–
H1H7269P (antibody, human IgG1, V domains shown, Monovalent 1-arm format: second Fab removed, only the Fc portion (CH2-CH3) expressed; human IgG1 Fc; tied by the numerical identifier; also called H1H7269B) VH: QVQLVESGGGLVQPGRSLRLSCAASGFKFDDYTMHWVRQGPGKGLEWVSDISWSGGSIDYTDSVKGRFSISRDNAKNSLYLQMNSLRVEDTALYYCVKDKSGYGKYSYGLDVWGQGTTVTVSS VL: not shown	1950 pM	–	10.8 pM	1.15e-12 M	–	–	–
H1H5793B (antibody, human IgG1, V domains shown, H1H: human IgG1 Fc) VH: QVQLVQSGTEVKKPGASMKVSCKASGYTFTGYYIHWVRQAPGQGLEWMGWINPNSDVTKYAQKFQGRVTLTRDTSISAAYIDLSRLRSDDTAIYYCARMGDGAVFDYWGQGTLVTVSS VL: DIQLTQSPSSLSASVGDRVTITCRASQRISSYLNWYQQKPGKAPKVLISVASSLQSGVPSRFSGSGFGTDFTLTISSLQPEDSASYYCQQSYNTPLTFGGGTKLEIKR	–	–	–	–	88.5 pM	4620 pM	3.28e-12 M
H1H5797B (antibody, human IgG1, V domains shown, H1H: human IgG1 Fc) VH: QVQLVQSGTEVKKPGASVKVSCKASGYTFTGYYMHWVRQAPGQGLEWMGWINPNSDVTNYAQKFQGRVTLTRDTSISTAYIDLSRLRSDDTAIYYCARMGDGAVFDYWGQGTLVTVSS VL: DIQMTQSPSSLSASVGDRVTITCRASQRISSYLNWYQQKPGKAPKVLISVASSLQSGVPSRFSGSGSGTDFTLTISSLQPEDFASYYCQQSYNTPLTFGGGTKVEIKR	–	–	–	–	576 pM	39600 pM	1.07e-11 M
H1H5786B (antibody, human IgG1, V domains shown, H1H: human IgG1 Fc) VH: QVQLVESGAEVKKPGASVKVSCKTSGYTFTGYYMHWIRQAPGQGLEWMGWINPKSGGTNYAQKFQGRVTMTRDTSISTAYMELSRLRSDDMAVYYCARMGDGAVFDFWGQGTLVTVSS VL: AIQMTQSPSSLSASVGDRVTITCRASQRISSFLNWYQQKPGKAPKLLIYTASNLQNGVPSRFSGSGSGTDFTLTISSLQPEDFATYYCQQSYRTPLTFGGGTKVEIKR	–	–	–	–	61 pM	1100 pM	1.79e-12 M
H1H5792B (antibody, human IgG1, V domains shown, H1H: human IgG1 Fc) VH: QVQLVESGGGVVQPGRSLRLSCAASGFTFSSYGMHWVRQAPGKGLEWVSTISFDGSNKYYADSVKGRFTISRDNSKNTLYLQMNSLRPEDTAVYYCAKGGGTSGSYFYYGMDVWGQGTTVTVSS VL: AIQMTQSPSSLSASVGDRVTITCRASQRISSFLNWYQQKPGKAPKLLIYTASNLQNGVPSRFSGSGSGTDFTLTISSLQPEDFATYYCQQSYRTPLTFGGGTKLEIKR	–	–	–	–	140 pM	5870 pM	6.47e-12 M
H1H5801B (antibody, human IgG1, V domains shown, H1H: human IgG1 Fc) VH: QVQLVQSGGGVVQPGGSLRLSCAASGFTFDDYAMHWVRQAPGKGLEWVSLISGDGGSTYYADSVKGRFTISRDNSKNSLYLQMNSLRTEDTALYYCAKDDSSSSWYYYYYGMDVWGRGTTVTVSS VL: DIQMTQSPSSLSASVGDRVTITCRASQRISSYLNWYQQKPGKAPKVLISVASSLQSGVPSRFSGSGSGTDFTLTISSLQPEDFASYYCQQSYNTPLTFGGGTKVEIKR	–	–	–	–	92.3 pM	15500 pM	1.09e-12 M
H1H5798B (antibody, human IgG1, V domains shown, H1H: human IgG1 Fc) VH: QVQLVQSGGGLVKPGGSLRLSCAASGFTFSSYDMSWVRQAPGKGLEWVSYISSSGNTIHYADSVKGRFTISRDNSKNSLYLQMNSLRAEDTAVYYCAKAGPATVTRRYYYYYGLDVWGQGTTVTVSS VL: DIVMTQSPSSLSASVRDRVTITCRASQRISSYLNWFQQKPGKAPKVLIYTASSLQNGVPSRFSGSGSGTDFTLTISSLQPEDFATYYCQQSYRTPLTFGGGTKVEIKR	–	–	–	–	181 pM	5570 pM	2.59e-12 M
H1H5795B (antibody, human IgG1, V domains shown, H1H: human IgG1 Fc) VH: EVQLVESGAEVKKPGASVKVSCKTSGYSFIGYYIHWMRQAPGQGLEWMGWINPKSGVTNYAQRFQGRVTMTRDTSISTAYMELSRLKSDDTAVYFCARMGDGAVFDFWGQGTLVTVSS VL: DIQLTQSPSSLSASVGDRVTITCRASQRISSFLNWYQQKPGKVPKLLIYTASNLQNGVPSRFSGTGSGTDFTLTISSLQPEDFATYYCQQSYRTPLTFGGGTKVDIKR	–	–	–	–	67.4 pM	2040 pM	3.09e-12 M
H1H5790B (antibody, human IgG1, V domains shown, H1H: human IgG1 Fc) VH: EVQLVESGGGVVQPGRSLRLSCAASGFTFSYYGMHWVRQAPGKGLEWVAVISFDGKNKYYADSVMGRFTISRDNSKNTLYLQMNSLRAEDSAVFFCARSYDILTGYGAGYSYHYGMDVWGQGTTVTVSS VL: AIQMTQSPSSLSASVGDRVTITCRASQRISSFLNWYQQKPGKAPKLLIYTASNLQNGVPSRFSGSGSGTDFTLTISSLQPEDFATYYCQQSYRTPLTFGGGTKVEIKR	–	–	–	–	87.1 pM	3550 pM	2.71e-12 M
H1H5791B (antibody, human IgG1, V domains shown, H1H: human IgG1 Fc) VH: QVQLVESGAEVKKPGASVKVSCKTSGYTLSGYYMHWMRQAPGQGLEWMGWINPKSGVTNYAQKFQDRVAMTRDTSISTAYMELSRLRSDDTAVYYCARMGDGAVFDFWAQGTLVTVSS VL: DIQLTQSPSSLSASVGDRVTITCRASQRISSFLNWYQQKPGKAPKLLIYTASNLQNGVPSRFSGSGSGTDFTLTISSLQPEDFATYYCQQSYRTPLTFGGGTKLEIKR	–	–	–	–	80.1 pM	3770 pM	1.75e-12 M
